{"source": "paper doi:10.1101/2020.06.01.127969", "target": "RNA polymerase II with SNAP-tagged Rpb1 labelled with SNAP-Surface 549 (Rpb1^SNAP549) (S. cerevisiae) (UniProt P04050)", "sequence (P04050 whole entry, looked up)": "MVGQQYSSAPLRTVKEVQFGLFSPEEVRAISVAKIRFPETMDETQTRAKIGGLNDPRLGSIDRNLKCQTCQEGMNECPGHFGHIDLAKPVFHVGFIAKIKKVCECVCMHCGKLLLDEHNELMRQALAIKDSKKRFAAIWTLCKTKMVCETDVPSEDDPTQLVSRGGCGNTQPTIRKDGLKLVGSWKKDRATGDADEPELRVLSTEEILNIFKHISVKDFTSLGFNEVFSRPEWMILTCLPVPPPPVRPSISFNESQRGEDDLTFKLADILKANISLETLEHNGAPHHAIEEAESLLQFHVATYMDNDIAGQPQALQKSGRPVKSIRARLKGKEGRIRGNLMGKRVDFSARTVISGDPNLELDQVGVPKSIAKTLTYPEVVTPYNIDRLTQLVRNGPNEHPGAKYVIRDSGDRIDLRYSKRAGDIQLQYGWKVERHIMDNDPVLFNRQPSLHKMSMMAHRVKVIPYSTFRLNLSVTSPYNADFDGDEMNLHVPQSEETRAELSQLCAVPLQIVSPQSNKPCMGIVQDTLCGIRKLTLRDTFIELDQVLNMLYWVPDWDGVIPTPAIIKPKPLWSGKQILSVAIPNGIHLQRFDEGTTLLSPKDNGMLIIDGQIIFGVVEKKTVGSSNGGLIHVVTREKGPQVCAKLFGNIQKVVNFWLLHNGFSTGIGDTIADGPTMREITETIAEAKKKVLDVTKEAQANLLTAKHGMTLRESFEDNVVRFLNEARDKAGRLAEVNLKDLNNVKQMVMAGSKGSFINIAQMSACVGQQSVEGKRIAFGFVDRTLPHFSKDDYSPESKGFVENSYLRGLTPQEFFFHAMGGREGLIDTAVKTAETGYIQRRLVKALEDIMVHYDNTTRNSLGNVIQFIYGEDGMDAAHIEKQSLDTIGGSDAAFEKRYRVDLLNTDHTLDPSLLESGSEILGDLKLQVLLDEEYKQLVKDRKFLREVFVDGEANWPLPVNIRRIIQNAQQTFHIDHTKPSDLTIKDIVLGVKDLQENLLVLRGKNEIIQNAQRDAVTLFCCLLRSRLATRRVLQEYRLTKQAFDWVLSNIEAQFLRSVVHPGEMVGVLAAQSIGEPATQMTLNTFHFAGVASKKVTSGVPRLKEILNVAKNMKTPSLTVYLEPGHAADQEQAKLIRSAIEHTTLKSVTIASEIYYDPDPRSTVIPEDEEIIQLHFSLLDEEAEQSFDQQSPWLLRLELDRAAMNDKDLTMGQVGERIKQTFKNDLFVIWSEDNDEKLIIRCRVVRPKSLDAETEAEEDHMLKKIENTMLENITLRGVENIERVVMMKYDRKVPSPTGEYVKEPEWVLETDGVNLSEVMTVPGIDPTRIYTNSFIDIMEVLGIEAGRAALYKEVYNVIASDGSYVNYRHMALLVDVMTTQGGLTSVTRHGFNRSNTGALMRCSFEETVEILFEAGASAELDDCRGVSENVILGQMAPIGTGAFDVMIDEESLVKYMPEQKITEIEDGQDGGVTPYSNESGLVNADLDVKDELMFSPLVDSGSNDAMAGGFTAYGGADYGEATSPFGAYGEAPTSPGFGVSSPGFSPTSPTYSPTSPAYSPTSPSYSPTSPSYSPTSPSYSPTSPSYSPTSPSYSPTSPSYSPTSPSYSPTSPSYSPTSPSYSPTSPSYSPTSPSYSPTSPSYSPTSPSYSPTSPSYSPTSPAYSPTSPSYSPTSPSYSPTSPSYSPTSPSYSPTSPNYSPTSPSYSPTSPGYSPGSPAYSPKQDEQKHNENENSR", "test": "CoSMoS", "data": [{"binder": "elongation factor Spt4/5 with DHFR-tagged Spt5 labelled with Cy5-TMP (Spt5^DHFR-Cy5) (complex, Cy5-trimethoprim (Cy5-TMP) bound non-covalently to the DHFR tag) chain 1: MSDNSDTNVSMQDHDQQFADPVVVPQSTDTKDENTSDKDTVDSGNVTTTESTERAESTSNIPPLDGEEKEAKSEPQQPEDNAETAATEQVSSSNGPATDDAQATLNTDSSEANEIVKKEEGSDERKRPREEDTKNSDGDTKDEGDNKDEDDDEDDDDDDDDEDDDDEAPTKRRRQERNRFLDIEAEVSDDEDEDEDEEDSELVREGFITHGDDEDDEASAPGARRDDRLHRQLDQDLNKTSEEDAQRLAKELRERYGRSSSKQYRAAAQDGYVPQRFLLPSVDTATIWGVRCRPGKEKELIRKLLKKKFNLDRAMGKKKLKILSIFQRDNYTGRIYIEAPKQSVIEKFCNGVPDIYISQKLLIPVQELPLLLKPNKSDDVALEEGSYVRIKRGIYKGDLAMVDQISENNLEVMLKIVPRLDYGKFDEIDPTTQQRKSRRPTFAHRAPPQLFNPTMALRLDQANLYKRDDRHFTYKNEDYIDGYLYKSFRIQHVETKNIQPTVEELARFGSKEGAVDLTSVSQSIKKAQAAKVTFQPGDRIEVLNGEQRGSKGIVTRTTKDIATIKLNGFTTPLEFPISTLRKIFEPGDHVTVINGEHQGDAGLVLMVEQGQVTFMSTQTSREVTITANNLSKSIDTTATSSEYALHDIVELSAKNVACIIQAGHDIFKVIDETGKVSTITKGSILSKINTARARVSSVDANGNEIKIGDTIVEKVGSRREGQVLYIQTQQIFVVSKKIVENAGVFVVNPSNVEAVASKDNMLSNKMDLSKMNPEIISKMGPPSSKTFQQPIQSRGGREVALGKTVRIRSAGYKGQLGIVKDVNGDKATVELHSKNKHITIDKHKLTYYNREGGEGITYDELVNRRGRVPQARMGPSYVSAPRNMATGGIAAGAAATSSGLSGGMTPGWSSFDGGKTPAVNAHGGSGGGGVSSWGGASTWGGQGNGGASAWGGAGGGASAWGGQGTGATSTWGGASAWGNKSSWGGASTWASGGESNGAMSTWGGTGDRSAYGGASTWGGNNNNKSTRDGGASAWGNQDDGNRSAWNNQGNKSNYGGNSTWGGH chain 2: MSSERACMLCGIVQTTNEFNRDGCPNCQGIFEEAGVSTMECTSPSFEGLVGMCKPTKSWVAKWLSVDHSIAGMYAIKVDGRLPAEVVELLPHYKPRDGSQVE", "values": [{"measurement": "1/k-5 (average time to dissociate from elongation complexes)", "result": 56, "unit": "s"}, {"measurement": "frequency of association with a DNA containing Rpb1^SNAP549, with added NTPs", "result": 0.0094, "unit": "s⁻¹"}, {"measurement": "kapp = k-5 + k6 (aggregate dissociation rate constant, pooled events)", "result": 0.021, "unit": "s⁻¹"}, {"measurement": "kapp,prior (only events in which Spt4/5 left before RNApII)", "result": 0.021, "unit": "s⁻¹"}, {"measurement": "kapp,simul (only events in which Spt4/5 and RNApII left simultaneously)", "result": 0.018, "unit": "s⁻¹"}]}]}
